In US12365738B2, “Method of treating an interleukin-11-associated or -mediated fibrotic disease or condition by administering an anti-interleukin-11 receptor subunit alpha (IL-11RA) antibody” (Lassen Therapeutics, Inc., priority 2021, dated 2025):

T1: hIL-11Rα (Homo sapiens, UniProt Q14626)
T1 sequence (Q14626 23-422): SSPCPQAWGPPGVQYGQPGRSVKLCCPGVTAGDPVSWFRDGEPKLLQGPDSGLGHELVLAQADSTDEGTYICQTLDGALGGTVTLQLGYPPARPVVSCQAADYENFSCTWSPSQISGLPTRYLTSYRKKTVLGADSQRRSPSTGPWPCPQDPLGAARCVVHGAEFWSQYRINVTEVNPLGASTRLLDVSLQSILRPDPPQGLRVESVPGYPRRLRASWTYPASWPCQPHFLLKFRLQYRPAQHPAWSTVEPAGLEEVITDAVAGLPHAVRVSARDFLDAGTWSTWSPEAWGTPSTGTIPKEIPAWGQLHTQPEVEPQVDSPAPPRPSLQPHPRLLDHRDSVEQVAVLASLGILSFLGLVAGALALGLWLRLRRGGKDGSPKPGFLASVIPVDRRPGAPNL

T2: hIL-11R (Homo sapiens, UniProt Q14626)
T2 sequence (Q14626 23-422): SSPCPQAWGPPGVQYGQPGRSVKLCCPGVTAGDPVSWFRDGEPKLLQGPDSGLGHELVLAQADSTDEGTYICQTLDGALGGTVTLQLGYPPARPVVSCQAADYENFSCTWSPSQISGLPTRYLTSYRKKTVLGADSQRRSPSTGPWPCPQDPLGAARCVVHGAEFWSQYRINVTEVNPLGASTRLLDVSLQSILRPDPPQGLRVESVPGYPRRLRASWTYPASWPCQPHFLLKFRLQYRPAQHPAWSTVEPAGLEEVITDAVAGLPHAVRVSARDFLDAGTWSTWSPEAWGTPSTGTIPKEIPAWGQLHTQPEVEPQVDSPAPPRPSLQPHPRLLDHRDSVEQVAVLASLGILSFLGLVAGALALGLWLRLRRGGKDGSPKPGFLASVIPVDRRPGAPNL


Experiments:
[1] = system: type VI collagen formation (PRO-C6) in fibrotic human PCLS; experiment: Fibrotic human precision-cut lung slice (PCLS) model, PRO-C6 ECM remodeling biomarker; format: cell-based; conditions: for median levels of PRO-C6 compared to the no treatment (media) control: pooled data, all donors and regions, mAb5 0.3, 3.0, 30 μg/mL, nintedanib 1 μM, isotype control 30 μg/mL
Experimental: Tissue slices were prepared from the subpleural and central region of the fibrotic lung from two human end-stage donors with pulmonary fibrosis (IPF and secondary fibrosis) (see, for example, Hess et al., Toxicol In Vitro. 32:347-61, 2016). For both donors, lung tissue samples from two different regional areas (subpleural and central) were used to generate tissue cores used for PCLS. Adjacent cores were used to achieve serial PCLS for the analysis of one treatment as compared to medium treated PCLS from the same cores. This enables the comparison of densely packed fibrotic areas with fibrotic foci with less affected areas. To ensure the fibrotic status, clinical/demographic information for each patient is provided.
Each treatment was tested with three replicates for each lung region and for each donor.
Preparation and incubation of precision-cut lung slices. Lung lobes were canuled and filled with 37° C. warm 2% low-melting agarose/medium solution. Filled lobes were cooled on ice to polymerise agarose. Tissue cores with a diameter of 8 mm were prepared and cut into approximately 300 μm thick slices using a microtome (Krumdieck tissue slicer, Alabama Research and Development, Muniford, AL, USA or Vibratome OTS-5000, Science Services GmbH, Munich) in Earle's Balanced Salts Solution (EBSS). Tissue slices were incubated in Dulbecco's modified Eagle's medium/nutrient mixture F-12 Ham (DMEM) with L-glutamine and 15 mM HEPES without phenol red. Tissue slices were transferred into petri dishes and washed with DMEM for 2 hours. Medium was changed four times every 30 minutes in order to remove cell debris.
Two PCLS per well were left over night in 500 μL DMEM in 24-well plates for a final washing step. Next day, PCLS were treated with experimental treatments or controls (see Table E5) in 250 μl DMEM/F-12 culture medium for 48 hours under normal cell culture conditions (37° C., 5% CO2). Medium contained 100 units/mL penicillin and 100 μg/mL streptomycin and was not supplemented with fetal calf serum. […]
Extracellular matrix remodeling evaluation. Biomarkers that reflect ECM remodeling were assessed in supernatant by Nordic Bioscience using the following competitive ELISA: PRO-C6 (C-terminal of type VI collagen C5 domain released as type VI collagen is incorporated into the matrix; measured on mesoscale platform [hsPRO-C6]): Reflects type VI collagen formation. […]
Statistics. […] Pooled data are presented as percentage of the “no treatment” control, calculated for individual regions and donors. Statistical significant differences were evaluated on pooled data by Kruskal-Wallis with Dunn's multiple comparisons test, comparing to the “no treatment” control. […]

hIL-11Rα = target: T1, hIL-11Rα; experiment: Kinetic binding analysis by biolayer interferometry (protein G biosensors, Octet RED96e)
Experimental: Association was carried out in the presence of a 2-fold dilution series of hIL-11Rα and was allowed to proceed for 120 seconds; dissociation was measured for 300 to 1200 seconds.

hIL-11R = target: T2, hIL-11R; experiment: Alternate biolayer interferometry assay (AHC biosensors) ranking mAbs 16-32 against mAb5; format: binding; conditions: AHC biosensors
Excerpt: A further series of antibodies were designed in which the residue at Kabat position 31 of the heavy chain was varied (mAbs 16-32). In this case an alternate biolayer interferometry assay was used to initially rank the antibodies compared to mAb5, the closest relative in sequence to mAbs 16-32. MAbs were loaded onto anti-human constant domain (AHC) biosensors (FortéBio) in 10×kinetics buffer consisting of PBS, 0.1% BSA, 0.02% polysorbate 20 (TWEEN™) for 120 s to achieve a spectral shift value of 0.8 to 1.2 nm. Association was carried out in the presence of 2-fold dilution series of hIL-11R and was allowed to proceed for 120 s. Dilution series started 10 nM. The dissociation in 10×kinetics buffer for 1200 s. Binding kinetic measurements were taken on an Octet RED96e instrument.

[2] = system: IL-11 signaling (STAT3 Reporter (Luciferase)-HEK293 cell line); experiment: Cell-based STAT3 reporter (luciferase) HEK293 assay for inhibiting IL-11 signaling; design: species or system human
Experimental: Further testing of the lead mAbs was carried out using a cell-based reporter assay. IL-11 is reported to signal through the STAT3 and ERK pathways. Therefore, a STAT3 reporter cell line in which firefly luciferase gene expression is driven by STAT3 response elements located upstream of a minimal TATA promoter was selected to analyze mAb functional activity. In these cells, IL-11 can activate the endogenous STAT3 allowing it to bind to the STAT3 response elements, inducing transcription of the luciferase reporter gene and resulting in readily detectable luciferase expression. Antibodies to IL-11R which block IL-11 signaling should inhibit expression of IL-11 driven luciferase in these cells.
The STAT3 Reporter (Luciferase)—HEK293 cell line (BPS Bioscience, catalog #79800-P) was grown, passaged, and assayed as per manufacturer's protocols. Cells were added at 25,000 cells per well in a 96-well microtiter dish and incubated at 37° C. for 30-45 min. in 5% CO2 humidified air. Anti-IL-11R mAbs were added as a 3-fold dilution series in duplicate columns or rows, and plates were returned to the incubator for an additional 1 h at 37° C. after which 40 ng/mL IL-11 was added to each well to initiate the signal transduction cascade and luciferase production. Plates were incubated for 18-24 hours at 37° C. and luciferase was detected using a One-Step Luciferase Assay System (BPS Bioscience, cat. no. 60690-1) as per manufacturer's instructions.

Row | ka (hIL-11Rα) | kd (hIL-11Rα) | ka (hIL-11R) | kd (hIL-11R) | Molecule | median levels of PRO-C6 compared to the no treatment (media) control ([1]; 48 hours) | dose relation of PRO-C6 reduction ([1]; 0.3, 3.0, 30 μg/mL, 48 hours) | effects on ECM remodeling relative to nintedanib ([1]; in several cases) | potency at inhibiting IL-11 signaling relative to TS7 / 8E2 (in words) [2]
1 |  |  |  |  | COC(=O)c1ccc2c(c1)NC(=O)/C2=C(\Nc1ccc(N(C)C(=O)CN2CCN(C)CC2)cc1)c1ccccc1 [nintedanib, Nintedanib, reference compound] | decreased |  |  | 
2 | 63700 M⁻¹ s⁻¹ | <1e-07 s⁻¹ | 490000 M⁻¹ s⁻¹ | 2.5e-05 s⁻¹ | mAb5: anti-IL-11Rα antibody, human IgG4 (S228P), kappa; VH SEQ ID NO: 201, VL SEQ ID NO: 202 (antibody, V domains shown, IgG4 S228P kappa constant regions; mAb5 VH Chain; mAb5 VL Chain) VH: EVQLLESGGGLVQPGGSLRLSCAASGFTFSWYSMTWVRQAPGKGLEWVSSIVPYGDLTQYADSVKGRFTISRDNSKNTLYLQMNSLRAEDTAVYYCAKGPGWGSFDLWGRGTLVTVSS VL: DIQMTQSPSSLSASVGDRVTITCQASQDINNYLNWYQQKPGKAPKLLIYDASNLQTGVPSRFSGSGSGTDFTFTISSLQPEDIATYYCQQHESQSPTFGPGTKVDIK | decreased | reduced PRO-C6 in a dose-dependent manner | better effects on ECM remodeling | more potent at inhibiting IL-11 signaling than either of TS7 or 8E2
3 | 58100 M⁻¹ s⁻¹ | <1e-07 s⁻¹ |  |  | mAb12: anti-IL-11Rα antibody, human IgG4 (S228P), kappa; VH SEQ ID NO: 215, VL SEQ ID NO: 216 (antibody, V domains shown, IgG4 S228P kappa constant regions; mAb12 VH Chain; mAb12 VL Chain) VH: EVQLLESGGGLVQPGGSLRLSCAASGFTFSWYSMTWVRQAPGKGLEWVSSIVPYGDLTQYADSVKGRFTISRDNSKNTLYLQMNSLRAEDTAVYYCAKGPGWYSFDLWGRGTLVTVSS VL: DIQMTQSPSSLSASVGDRVTITCQASQDINNYLNWYQQKPGKAPKLLIYDASNLQTGVPSRFSGSGSGTDFTFTISSLQPEDIATYYCQQHESQSPTFGPGTKVDIK |  |  |  | comparable in potency to TS7
